Holding throughout (test): FACS, SVT2 cells
Test [1] addresses T1, human FcRH2 (full-length, on SVT2 cells) (human, UniProt Q96LA5 20-508).
T1 construct: whole, on cells; also called SVT2-FcRH2
T1 sequence (looked up): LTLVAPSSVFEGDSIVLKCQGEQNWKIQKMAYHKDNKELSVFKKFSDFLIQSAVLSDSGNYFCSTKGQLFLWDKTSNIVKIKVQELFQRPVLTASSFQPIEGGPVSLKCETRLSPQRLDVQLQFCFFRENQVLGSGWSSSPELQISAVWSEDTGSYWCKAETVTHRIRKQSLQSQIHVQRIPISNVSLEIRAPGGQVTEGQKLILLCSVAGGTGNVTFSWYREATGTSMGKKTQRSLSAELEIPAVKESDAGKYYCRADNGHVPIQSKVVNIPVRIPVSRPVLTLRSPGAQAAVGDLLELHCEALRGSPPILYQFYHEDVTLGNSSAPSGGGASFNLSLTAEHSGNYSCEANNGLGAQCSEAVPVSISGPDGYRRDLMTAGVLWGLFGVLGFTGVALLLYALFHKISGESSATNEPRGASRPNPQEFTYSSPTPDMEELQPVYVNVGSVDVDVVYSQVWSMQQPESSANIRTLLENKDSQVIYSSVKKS

The target in test [2] is T2, human FcRH5 (full-length, on cells) (human, UniProt Q96RD9 16-977).
T2 construct: Transfected SVT2/293 cells or endogenous expression (MOLP-2, primary cells); also called SVT2-FcRH5; SVT2-huFcRH5
T2 sequence: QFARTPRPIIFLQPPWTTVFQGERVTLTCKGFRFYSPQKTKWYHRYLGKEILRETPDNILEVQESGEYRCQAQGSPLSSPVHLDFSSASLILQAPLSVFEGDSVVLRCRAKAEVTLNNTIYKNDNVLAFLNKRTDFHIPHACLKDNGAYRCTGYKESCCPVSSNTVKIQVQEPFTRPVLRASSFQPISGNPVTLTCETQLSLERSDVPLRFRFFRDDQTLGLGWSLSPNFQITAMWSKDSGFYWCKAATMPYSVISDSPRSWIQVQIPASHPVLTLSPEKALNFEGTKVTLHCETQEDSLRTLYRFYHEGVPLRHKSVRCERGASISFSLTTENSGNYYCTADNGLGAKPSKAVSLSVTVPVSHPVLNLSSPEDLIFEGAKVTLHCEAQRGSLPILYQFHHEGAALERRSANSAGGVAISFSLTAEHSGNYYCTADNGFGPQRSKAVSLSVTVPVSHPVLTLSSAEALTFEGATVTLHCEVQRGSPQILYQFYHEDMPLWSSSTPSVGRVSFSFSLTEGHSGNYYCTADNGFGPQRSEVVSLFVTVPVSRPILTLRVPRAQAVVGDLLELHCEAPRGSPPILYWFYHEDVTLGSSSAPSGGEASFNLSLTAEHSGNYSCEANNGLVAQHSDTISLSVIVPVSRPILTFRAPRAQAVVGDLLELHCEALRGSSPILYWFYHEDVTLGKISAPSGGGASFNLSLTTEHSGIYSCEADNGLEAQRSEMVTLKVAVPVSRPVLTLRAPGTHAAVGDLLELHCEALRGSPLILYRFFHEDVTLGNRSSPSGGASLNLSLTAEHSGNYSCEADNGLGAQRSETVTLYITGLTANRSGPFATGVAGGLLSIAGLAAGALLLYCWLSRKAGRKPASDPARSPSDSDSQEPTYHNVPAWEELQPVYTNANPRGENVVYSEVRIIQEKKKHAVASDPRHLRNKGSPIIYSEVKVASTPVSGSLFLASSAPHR

The target of test [3] is T3, human FcRH3 (full-length, on SVT2 cells) (human, UniProt Q96P31 18-734).
T3 construct: whole, on cells; also called SVT2-FcRH3
T3 sequence (looked up): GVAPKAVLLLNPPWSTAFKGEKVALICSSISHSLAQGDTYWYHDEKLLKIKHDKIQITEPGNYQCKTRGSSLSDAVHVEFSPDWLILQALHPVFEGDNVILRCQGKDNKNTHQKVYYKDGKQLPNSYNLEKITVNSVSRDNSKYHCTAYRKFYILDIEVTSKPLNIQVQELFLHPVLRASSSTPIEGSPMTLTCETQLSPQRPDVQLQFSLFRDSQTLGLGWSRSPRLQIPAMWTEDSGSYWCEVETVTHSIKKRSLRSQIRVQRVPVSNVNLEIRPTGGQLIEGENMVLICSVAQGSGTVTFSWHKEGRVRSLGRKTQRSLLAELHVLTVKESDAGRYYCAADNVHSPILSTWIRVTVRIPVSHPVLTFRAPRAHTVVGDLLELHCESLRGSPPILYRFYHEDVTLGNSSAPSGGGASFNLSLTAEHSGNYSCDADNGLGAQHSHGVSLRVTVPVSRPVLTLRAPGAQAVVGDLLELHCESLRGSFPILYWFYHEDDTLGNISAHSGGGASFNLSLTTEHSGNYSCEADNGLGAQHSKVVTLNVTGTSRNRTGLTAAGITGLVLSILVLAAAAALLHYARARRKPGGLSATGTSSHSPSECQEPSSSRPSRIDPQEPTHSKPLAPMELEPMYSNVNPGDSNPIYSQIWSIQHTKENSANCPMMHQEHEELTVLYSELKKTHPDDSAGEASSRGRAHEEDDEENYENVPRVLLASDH

Test [4] addresses T4, human FcRH4 (full-length, on SVT2 cells) (human, UniProt Q96PJ5 20-515).
T4 construct: whole, on cells; also called SVT2-FcRH4
T4 sequence (looked up): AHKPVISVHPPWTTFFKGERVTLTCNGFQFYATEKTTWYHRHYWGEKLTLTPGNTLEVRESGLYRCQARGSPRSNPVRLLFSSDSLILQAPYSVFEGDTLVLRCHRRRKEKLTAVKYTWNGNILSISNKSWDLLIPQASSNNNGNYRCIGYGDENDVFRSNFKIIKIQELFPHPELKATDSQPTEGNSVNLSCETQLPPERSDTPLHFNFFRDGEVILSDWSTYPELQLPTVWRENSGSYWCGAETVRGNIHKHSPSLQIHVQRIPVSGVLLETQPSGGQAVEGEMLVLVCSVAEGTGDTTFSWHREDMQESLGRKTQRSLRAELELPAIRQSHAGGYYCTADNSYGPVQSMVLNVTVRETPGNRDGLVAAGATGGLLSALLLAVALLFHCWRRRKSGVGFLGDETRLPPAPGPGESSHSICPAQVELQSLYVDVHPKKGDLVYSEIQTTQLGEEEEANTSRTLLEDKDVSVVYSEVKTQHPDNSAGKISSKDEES

B1: 15G8 (antibody, mouse IgG2a, V domains shown)
VH: EVQLQQSGPELVKPGASVKMSCKASGYTFTNYVIHWMKQKPGQGLEWIGYISPYNDYTKYNEKFEGKATLTSDKSSNTAYMELSSLTSEDSAVYYCARRDYYGSSDYWGQGTTLTVSS
VL: QIVLTQSPAIMSASPGEKVTMTCSASSSVDYMHWYQQKSGTSPKKWIYDTSKLASGVPARFSGSGSGTSYSLTIGSMEAEDAATYYCQQWSSNPPTFGGGTKLEIK
notes: mouse mAb, Campaign C; recombinant murine IgG2a for SPR; also called mAb 15G8
Consider B1, for which the binding result is on record as “no binding” in test [1], “binds” in test [2], “no binding” in test [3] and “no binding” in test [4].

B2: 17B1 (antibody, mouse IgG2a, V domains shown)
VH: QVQLQQSGPELVRPGVSVKISCKGSGYTFTHYAMHWVKQSHTKSLEWIGMISSSSGNTNFNQKFMDKATMTVDKSSTTAYLELARLTFGDSAIYYCARWSYYALFDYWGQGTTVTVSS
VL: ENVLTQSPAIMSASPGEKVTMTCSADSSVDYIHWYQQKSNTSPKLWIYDTSKLASGVPGRFSGSGSGNSYSLTISSMEAEDFATYYCFQGSGYPLTFGSGTKLELK
notes: mouse mAb, Campaign C; recombinant murine IgG2a for SPR
In the case of B2, the binding result is given as “no binding” in test [1], “binds” in test [2], “no binding” in test [3] and “no binding” in test [4].

The values above are taken from patent publication US20240383984A1 (Genentech, published 2024).
